Assay results taken from patent publication US20210309732A1 (ELIXIRON IMMUNOTHERAPEUTICS HONG KONG, published 2021).
Residue numbers refer to the chain shown, from its start.

B1: 1D2 SDR mutant HY102N (antibody, IgG1, V domains shown)
VH: QVQLVQSGAEVKKPGASVKVSCEASGYTFTDKYLHWVRQAPGQGLEWMAWINPKSGGTFYAQNFKGRVTVTRDTSINTAYLELTSLRLDDTSTYYCARGRDNYDQGAADLWGQGTMVTVSS
VL: DIQLTQSPSSLSASVGDRVTITCRASQGINSVLAWYQQKPGKAPKLLLYAASKLESGVPSRFSGSGSGTDYTLTISSLQPEDFGTYYCQQYYSPVRTFGQGTKVEIKR
notes: also called X5 N
B2: 1D2 SDR mutant HY102T (antibody, IgG1, V domains shown)
VH: B1 VH with N102T
VL: B1 VL
notes: also called X5 T
B3: 1D2 SDR mutant HY103M (antibody, IgG1, V domains shown)
VH: B1 VH with N102Y, Y103M
VL: B1 VL
notes: also called X6 M
B4: 1D2 SDR mutant HY103Q (antibody, IgG1, V domains shown)
VH: B1 VH with N102Y, Y103Q
VL: B1 VL
notes: also called X6 Q
B5: 1D2 SDR mutant HY103T (antibody, IgG1, V domains shown)
VH: B1 VH with N102Y, Y103T
VL: B1 VL
notes: also called X6 T
B6: 1D2 SDR mutant HY103L (antibody, IgG1, V domains shown)
VH: B1 VH with N102Y, Y103L
VL: B1 VL
notes: also called X6 L
B7: 1D2 SDR mutant HY102W (antibody, IgG1, V domains shown)
VH: B1 VH with N102W
VL: B1 VL
notes: also called X5 W
B8: 1D2 SDR mutant HY103S (antibody, IgG1, V domains shown)
VH: B1 VH with N102Y, Y103S
VL: B1 VL
notes: also called X6 S
B9: 1D2 SDR mutant HY103F (antibody, IgG1, V domains shown)
VH: B1 VH with N102Y, Y103F
VL: B1 VL
notes: also called X6 F
B10: 1D2 SDR mutant HY103D (antibody, IgG1, V domains shown)
VH: B1 VH with N102Y, Y103D
VL: B1 VL
notes: also called X6 D
B11: 1D2 SDR mutant HY103P (antibody, IgG1, V domains shown)
VH: B1 VH with N102Y, Y103P
VL: B1 VL
notes: also called X6 P
B12: 1D2 SDR mutant HY103A (antibody, IgG1, V domains shown)
VH: B1 VH with N102Y, Y103A
VL: B1 VL
notes: also called X6 A
B13: 1D2 SDR mutant HY103K (antibody, IgG1, V domains shown)
VH: B1 VH with N102Y, Y103K
VL: B1 VL
notes: also called X6 K
B14: 1D2 SDR mutant HY102V (antibody, IgG1, V domains shown)
VH: B1 VH with N102V
VL: B1 VL
notes: also called X5 V
B15: 1D2 SDR mutant HY103G (antibody, IgG1, V domains shown)
VH: B1 VH with N102Y, Y103G
VL: B1 VL
notes: also called X6 G
B16: 1D2 SDR mutant HY103H (antibody, IgG1, V domains shown)
VH: B1 VH with N102Y, Y103H
VL: B1 VL
notes: also called X6 H
B17: 1D2 SDR mutant HY102S (antibody, IgG1, V domains shown)
VH: B1 VH with N102S
VL: B1 VL
notes: also called X5 S

Biological target: T1, recombinant human GM-CSF (human, UniProt P04141 18-144)
T1 construct: also called rhGM-CSF; CSF2
T1 sequence (P04141 18-144 limits assumed): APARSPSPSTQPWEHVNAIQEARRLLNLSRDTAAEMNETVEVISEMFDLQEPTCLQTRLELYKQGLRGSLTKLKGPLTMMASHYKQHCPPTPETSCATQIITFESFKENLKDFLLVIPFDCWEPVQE
Assay: ELISA on coated rhGM-CSF, UBA relative to 1D2
Summary of the method: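 Antibody clones carrying SDR point mutants in VH or VL, each paired with the wild-type chain, were expressed in HEK293 cells. Culture media diluted 1:12000 were bound to plates coated with rhGM-CSF at 1 μg/mL for 1 h at room temperature. Detection used HRP anti-human antibody and Amplex Red fluorescence (Ex530/Em590), with UBA = fluorescence signal/dilution factor.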

Row | Binder | binding affinity % of 1D2 [%]
1 | B1 | 83
2 | B2 | 56
3 | B3 | 94
4 | B4 | 74
5 | B5 | 104
6 | B6 | 67
7 | B7 | 82
8 | B8 | 85
9 | B9 | 81
10 | B10 | 134
11 | B11 | 141
12 | B12 | 88
13 | B13 | 143
14 | B14 | 71
15 | B15 | 138
16 | B16 | 109
17 | B17 | 104
